Source: PMC4108407, “6-Hydroxy-3-Succinoylpyridine Hydroxylase Catalyzes a Central Step of Nicotine Degradation in Agrobacterium tumefaciens S33” (PLoS ONE, 2014)

Key:
Experiment in all cases: purified protein
O=C(O)CCC(=O)c1ccc(O)nc1 = details: 50 mM phosphate buffer pH 8.0, 30°C, co-substrate NADH, FAD
[1] = test system: NC(=O)C1=CN([C@@H]2O[C@H](COP(=O)(O)OP(=O)(O)OC[C@H]3O[C@@H](n4cnc5c(N)ncnc54)[C@H](O)[C@@H]3O)[C@@H](O)[C@H]2O)C=CC1; details: 50 mM phosphate buffer pH 8.0, 30°C, co-substrate HSP, FAD
[2] = test system: NC(=O)C1=CN([C@@H]2O[C@H](COP(=O)(O)OP(=O)(O)OC[C@H]3O[C@@H](n4cnc5c(N)ncnc54)[C@H](OP(=O)(O)O)[C@@H]3O)[C@@H](O)[C@H]2O)C=CC1; details: 50 mM phosphate buffer pH 8.0, 30°C, co-substrate HSP, FAD

Substance: HSP hydroxylase (6-hydroxy-3-succinoylpyridine hydroxylase) (Agrobacterium tumefaciens)
- Km (O=C(O)CCC(=O)c1ccc(O)nc1): 150 ± 20 µM
- Km [1]: 100 ± 10 µM
- Km [2]: 350 ± 40 µM
